Tests used:
[1] = target: T1, recombinant, GPI-linked human FcRn on cell line NS0 HuFcRn (memb), clone 7-3 (human, UniProt P55899 24-297; P61769 21-119); test: IC50 of wild-type / IC50 of this antibody, same assay
T1 construct: Expressed from pDL208 on the surface of NS0 cells; also called human neonatal Fc receptor; not shown: human c-myc decapeptide flanked by linker peptides, then GPI linkage signal of human decay accelerating factor (vector p)

[2] = target: T1, recombinant, GPI-linked human FcRn on …; test: competition FACS vs biotinylated HuEP5C7-IgG2M3 on NS0 cells expressing human FcRn, FSB pH 6.0

B1: OST577-IgG2M3 L314A (antibody)
heavy: QVQLVESGGGVVQPGRSLRLSCAASGFTFSRYGMHWVRQAPGKGLEWVAVISYDGSNKWYADSVKGRFTISRDNSKNTLFLQMHSLRAADTGVYFCAKDQLYFGSQSPGHYWGQGTLVTVSSASTKGPSVFPLAPCSRSTSESTAALGCLVKDYFPEPVTVSWNSGALTSGVHTFPAVLQSSGLYSLSSVVTVPSSNFGTQTYTCNVDHKPSNTKVDKTVERKCCVECPPCPAPPAAAPSVFLFPPKPKDTLMISRTPEVTCVVVDVSHEDPEVQFNWYVDGVEVHNAKTKPREEQFNSTFRVVSVLTVVHQDWANGKEYKCKVSNKGLPAPIEKTISKTKGQPREPQVYTLPPSREEMTKNQVSLTCLVKGFYPSDIAVEWESNGQPENNYKTTPPMLDSDGSFFLYSKLTVDKSRWQQGNVFSCSVMHEALHNHYTQKSLSLSPSK
light: SYVLTQPPSVSVAPGQTARITCGGDNIGSKSVNWFQQKPGQAPVLVVYDDNERPSGISERFSGSNSGNTATLTISRVEAGDEADYYCQVWDSSSDHVVFGGGTKLTVLGQPKAAPSVTLFPPSSEELQANKATLVCLISDFYPGAVTVAWKADSSPVKAGVETTTPSKQSNNKYAASSYLSLTPEQWKSHRSYSCQVTHEGSTVEKTVAPTECS
- Relative Binding [1]: 0.16 ratio
- IC50 [2]: 68.7 µg/mL

B2: OST577-IgG2M3 T250S (antibody)
heavy: QVQLVESGGGVVQPGRSLRLSCAASGFTFSRYGMHWVRQAPGKGLEWVAVISYDGSNKWYADSVKGRFTISRDNSKNTLFLQMHSLRAADTGVYFCAKDQLYFGSQSPGHYWGQGTLVTVSSASTKGPSVFPLAPCSRSTSESTAALGCLVKDYFPEPVTVSWNSGALTSGVHTFPAVLQSSGLYSLSSVVTVPSSNFGTQTYTCNVDHKPSNTKVDKTVERKCCVECPPCPAPPAAAPSVFLFPPKPKDSLMISRTPEVTCVVVDVSHEDPEVQFNWYVDGVEVHNAKTKPREEQFNSTFRVVSVLTVVHQDWLNGKEYKCKVSNKGLPAPIEKTISKTKGQPREPQVYTLPPSREEMTKNQVSLTCLVKGFYPSDIAVEWESNGQPENNYKTTPPMLDSDGSFFLYSKLTVDKSRWQQGNVFSCSVMHEALHNHYTQKSLSLSPSK
light: SYVLTQPPSVSVAPGQTARITCGGDNIGSKSVNWFQQKPGQAPVLVVYDDNERPSGISERFSGSNSGNTATLTISRVEAGDEADYYCQVWDSSSDHVVFGGGTKLTVLGQPKAAPSVTLFPPSSEELQANKATLVCLISDFYPGAVTVAWKADSSPVKAGVETTTPSKQSNNKYAASSYLSLTPEQWKSHRSYSCQVTHEGSTVEKTVAPTECS
- Relative Binding [1]: 0.89 ratio
- IC50 [2]: 12 µg/mL

B3: OST577-IgG2M3 L314Q (antibody)
heavy: QVQLVESGGGVVQPGRSLRLSCAASGFTFSRYGMHWVRQAPGKGLEWVAVISYDGSNKWYADSVKGRFTISRDNSKNTLFLQMHSLRAADTGVYFCAKDQLYFGSQSPGHYWGQGTLVTVSSASTKGPSVFPLAPCSRSTSESTAALGCLVKDYFPEPVTVSWNSGALTSGVHTFPAVLQSSGLYSLSSVVTVPSSNFGTQTYTCNVDHKPSNTKVDKTVERKCCVECPPCPAPPAAAPSVFLFPPKPKDTLMISRTPEVTCVVVDVSHEDPEVQFNWYVDGVEVHNAKTKPREEQFNSTFRVVSVLTVVHQDWQNGKEYKCKVSNKGLPAPIEKTISKTKGQPREPQVYTLPPSREEMTKNQVSLTCLVKGFYPSDIAVEWESNGQPENNYKTTPPMLDSDGSFFLYSKLTVDKSRWQQGNVFSCSVMHEALHNHYTQKSLSLSPSK
light: SYVLTQPPSVSVAPGQTARITCGGDNIGSKSVNWFQQKPGQAPVLVVYDDNERPSGISERFSGSNSGNTATLTISRVEAGDEADYYCQVWDSSSDHVVFGGGTKLTVLGQPKAAPSVTLFPPSSEELQANKATLVCLISDFYPGAVTVAWKADSSPVKAGVETTTPSKQSNNKYAASSYLSLTPEQWKSHRSYSCQVTHEGSTVEKTVAPTECS
- Relative Binding [1]: 0.33 ratio
- IC50 [2]: 32 µg/mL

B4: OST577-IgG2M3 L314R (antibody)
heavy: QVQLVESGGGVVQPGRSLRLSCAASGFTFSRYGMHWVRQAPGKGLEWVAVISYDGSNKWYADSVKGRFTISRDNSKNTLFLQMHSLRAADTGVYFCAKDQLYFGSQSPGHYWGQGTLVTVSSASTKGPSVFPLAPCSRSTSESTAALGCLVKDYFPEPVTVSWNSGALTSGVHTFPAVLQSSGLYSLSSVVTVPSSNFGTQTYTCNVDHKPSNTKVDKTVERKCCVECPPCPAPPAAAPSVFLFPPKPKDTLMISRTPEVTCVVVDVSHEDPEVQFNWYVDGVEVHNAKTKPREEQFNSTFRVVSVLTVVHQDWRNGKEYKCKVSNKGLPAPIEKTISKTKGQPREPQVYTLPPSREEMTKNQVSLTCLVKGFYPSDIAVEWESNGQPENNYKTTPPMLDSDGSFFLYSKLTVDKSRWQQGNVFSCSVMHEALHNHYTQKSLSLSPSK
light: SYVLTQPPSVSVAPGQTARITCGGDNIGSKSVNWFQQKPGQAPVLVVYDDNERPSGISERFSGSNSGNTATLTISRVEAGDEADYYCQVWDSSSDHVVFGGGTKLTVLGQPKAAPSVTLFPPSSEELQANKATLVCLISDFYPGAVTVAWKADSSPVKAGVETTTPSKQSNNKYAASSYLSLTPEQWKSHRSYSCQVTHEGSTVEKTVAPTECS
- Relative Binding [1]: 0.11 ratio
- IC50 [2]: 102 µg/mL

B5: OST577-IgG2M3 T250D (antibody)
heavy: QVQLVESGGGVVQPGRSLRLSCAASGFTFSRYGMHWVRQAPGKGLEWVAVISYDGSNKWYADSVKGRFTISRDNSKNTLFLQMHSLRAADTGVYFCAKDQLYFGSQSPGHYWGQGTLVTVSSASTKGPSVFPLAPCSRSTSESTAALGCLVKDYFPEPVTVSWNSGALTSGVHTFPAVLQSSGLYSLSSVVTVPSSNFGTQTYTCNVDHKPSNTKVDKTVERKCCVECPPCPAPPAAAPSVFLFPPKPKDDLMISRTPEVTCVVVDVSHEDPEVQFNWYVDGVEVHNAKTKPREEQFNSTFRVVSVLTVVHQDWLNGKEYKCKVSNKGLPAPIEKTISKTKGQPREPQVYTLPPSREEMTKNQVSLTCLVKGFYPSDIAVEWESNGQPENNYKTTPPMLDSDGSFFLYSKLTVDKSRWQQGNVFSCSVMHEALHNHYTQKSLSLSPSK
light: SYVLTQPPSVSVAPGQTARITCGGDNIGSKSVNWFQQKPGQAPVLVVYDDNERPSGISERFSGSNSGNTATLTISRVEAGDEADYYCQVWDSSSDHVVFGGGTKLTVLGQPKAAPSVTLFPPSSEELQANKATLVCLISDFYPGAVTVAWKADSSPVKAGVETTTPSKQSNNKYAASSYLSLTPEQWKSHRSYSCQVTHEGSTVEKTVAPTECS
- Relative Binding [1]: < 0.05 ratio

B6: OST577-IgG2M3 T250A (antibody)
heavy: QVQLVESGGGVVQPGRSLRLSCAASGFTFSRYGMHWVRQAPGKGLEWVAVISYDGSNKWYADSVKGRFTISRDNSKNTLFLQMHSLRAADTGVYFCAKDQLYFGSQSPGHYWGQGTLVTVSSASTKGPSVFPLAPCSRSTSESTAALGCLVKDYFPEPVTVSWNSGALTSGVHTFPAVLQSSGLYSLSSVVTVPSSNFGTQTYTCNVDHKPSNTKVDKTVERKCCVECPPCPAPPAAAPSVFLFPPKPKDALMISRTPEVTCVVVDVSHEDPEVQFNWYVDGVEVHNAKTKPREEQFNSTFRVVSVLTVVHQDWLNGKEYKCKVSNKGLPAPIEKTISKTKGQPREPQVYTLPPSREEMTKNQVSLTCLVKGFYPSDIAVEWESNGQPENNYKTTPPMLDSDGSFFLYSKLTVDKSRWQQGNVFSCSVMHEALHNHYTQKSLSLSPSK
light: SYVLTQPPSVSVAPGQTARITCGGDNIGSKSVNWFQQKPGQAPVLVVYDDNERPSGISERFSGSNSGNTATLTISRVEAGDEADYYCQVWDSSSDHVVFGGGTKLTVLGQPKAAPSVTLFPPSSEELQANKATLVCLISDFYPGAVTVAWKADSSPVKAGVETTTPSKQSNNKYAASSYLSLTPEQWKSHRSYSCQVTHEGSTVEKTVAPTECS
- Relative Binding [1]: 0.8 ratio
- IC50 [2]: 13.3 µg/mL

B7: OST577-IgG2M3 L314W (antibody)
heavy: QVQLVESGGGVVQPGRSLRLSCAASGFTFSRYGMHWVRQAPGKGLEWVAVISYDGSNKWYADSVKGRFTISRDNSKNTLFLQMHSLRAADTGVYFCAKDQLYFGSQSPGHYWGQGTLVTVSSASTKGPSVFPLAPCSRSTSESTAALGCLVKDYFPEPVTVSWNSGALTSGVHTFPAVLQSSGLYSLSSVVTVPSSNFGTQTYTCNVDHKPSNTKVDKTVERKCCVECPPCPAPPAAAPSVFLFPPKPKDTLMISRTPEVTCVVVDVSHEDPEVQFNWYVDGVEVHNAKTKPREEQFNSTFRVVSVLTVVHQDWWNGKEYKCKVSNKGLPAPIEKTISKTKGQPREPQVYTLPPSREEMTKNQVSLTCLVKGFYPSDIAVEWESNGQPENNYKTTPPMLDSDGSFFLYSKLTVDKSRWQQGNVFSCSVMHEALHNHYTQKSLSLSPSK
light: SYVLTQPPSVSVAPGQTARITCGGDNIGSKSVNWFQQKPGQAPVLVVYDDNERPSGISERFSGSNSGNTATLTISRVEAGDEADYYCQVWDSSSDHVVFGGGTKLTVLGQPKAAPSVTLFPPSSEELQANKATLVCLISDFYPGAVTVAWKADSSPVKAGVETTTPSKQSNNKYAASSYLSLTPEQWKSHRSYSCQVTHEGSTVEKTVAPTECS
- Relative Binding [1]: 0.53 ratio
- IC50 [2]: 20.2 µg/mL

B8: OST577-IgG2M3 M428G (antibody)
heavy: QVQLVESGGGVVQPGRSLRLSCAASGFTFSRYGMHWVRQAPGKGLEWVAVISYDGSNKWYADSVKGRFTISRDNSKNTLFLQMHSLRAADTGVYFCAKDQLYFGSQSPGHYWGQGTLVTVSSASTKGPSVFPLAPCSRSTSESTAALGCLVKDYFPEPVTVSWNSGALTSGVHTFPAVLQSSGLYSLSSVVTVPSSNFGTQTYTCNVDHKPSNTKVDKTVERKCCVECPPCPAPPAAAPSVFLFPPKPKDTLMISRTPEVTCVVVDVSHEDPEVQFNWYVDGVEVHNAKTKPREEQFNSTFRVVSVLTVVHQDWLNGKEYKCKVSNKGLPAPIEKTISKTKGQPREPQVYTLPPSREEMTKNQVSLTCLVKGFYPSDIAVEWESNGQPENNYKTTPPMLDSDGSFFLYSKLTVDKSRWQQGNVFSCSVGHEALHNHYTQKSLSLSPSK
light: SYVLTQPPSVSVAPGQTARITCGGDNIGSKSVNWFQQKPGQAPVLVVYDDNERPSGISERFSGSNSGNTATLTISRVEAGDEADYYCQVWDSSSDHVVFGGGTKLTVLGQPKAAPSVTLFPPSSEELQANKATLVCLISDFYPGAVTVAWKADSSPVKAGVETTTPSKQSNNKYAASSYLSLTPEQWKSHRSYSCQVTHEGSTVEKTVAPTECS
- Relative Binding [1]: 0.072 ratio
- IC50 [2]: 147 µg/mL

From patent publication US20050276799A1 (PDL BIOPHARMA, published 2005)
